{"source": "paper PMC11150526", "about": "“Pseudomonas aeruginosa gene PA4880 encodes a Dps-like protein with a Dps fold, bacterioferritin-type ferroxidase centers, and endonuclease activity” (Frontiers in Molecular Biosciences, 2024)", "key": {"[1]": {"target": "the molecule itself", "test": "SEC; calibrated Superdex 200 Increase 10/300 GL; 50 mM Tris pH 7.5, 1 mM MgSO4; also run after titration with Fe2+ (0 h and 24 h), and after MgSO4 was added back to disassembled protein (only partial reassembly)"}, "[2]": {"target": "the molecule itself", "test": "crystal structure; Pa DpsL-dimer (also called Pa DpsL-monomer); protein purified without MgSO4; crystals from 8% PEG 6,000, 100 mM MES pH 6.0, 100 mM MgCl2; 1.3 A; one molecule in the asymmetric unit, dimer by crystallographic symmetry (PISA)"}}}
{"protein": "Pseudomonas aeruginosa Dps-like protein (product of gene PA4880) (natural protein, Pseudomonas aeruginosa PAO1, UniProt Q9HUT3 1-177, looked up, Product of gene PA4880 of P. aeruginosa PAO1 (annotated as probable bacterioferritin); The gene was synthesised with silent, codon-optimising mutations and cloned NdeI/BamHI into pET11a; The structures number residues from Met1; No tag is mentioned; As isolated it carries di-iron ferroxidase centres (8-10 Fe per 12-mer); also called Pa DpsL; PaDpsL; source: E. coli BL21-Gold (DE3), pET11a, …) MTTVQLTDVQTLRDRARKNIQEGAVTEGYSADRQTVLRLLNEALATELVCFLRYKRHYFMATGLKASIAAAEFLEHANQEMQHADQLAERIMQLGGEPDFNPRGLEERSHAEYVEGKTLKDMVTENLIAERIAIDSYREIITYLGNDDPTTRRIFEEILAQEEEHADDMADILDDLA", "values": [{"measurement": "stoichiometry N", "setting": "[1]", "result": 12}, {"measurement": "stoichiometry N", "setting": "[2]", "result": 2}]}
